Results published in patent US20080199426A1 (BETH ISRAEL DEACONESS MEDICAL CENTER, published 2008).

B1: SH2 domain of Brdg1 (other, UniProt Q9ULZ2 177-280, looked up)
chain: ACFYTVSRKEATEMLQKNPSLGNMILRPGSDSRNYSITIRQEIDIPRIKHYKVMSVGQNYTIELEKPVTLPNLFSVIDYFVKETRGNLRPFICSTDENTGQEPS
notes: domain: SH2 domain
B2: SH2 domain of Nck2 (other, UniProt O43639 285-380, looked up)
chain: WYYGNVTRHQAECALNERGVEGDFLIRDSESSPSDFSVSLKASGKNKHFKVQLVDNVYCIGQRRFHTMDELVEHYKKAPIFTSEHGEKLYLVRALQ
notes: domain: SH2 domain
B3: SH2 domain of SHC1 (other, UniProt P29353 488-579, looked up)
chain: WFHGKLSRREAEALLQLNGDFLVRESTTTPGQYVLTGLQSGQPKHLLLVDPEGVVRTKDHRFESVSHLISYHMDNHLPIISAGSELCLQQPV
notes: domain: SH2 domain
B4: SH2 domain of Eat2 (other, UniProt O14796 5-101, looked up)
chain: YYHGRLTKQDCETLLLKEGVDGNFLLRDSESIPGVLCLCVSFKNIVYTYRIFREKHGYYRIQTAEGSPKQVFPSLKELISKFEKPNQGMVVHLLKPI
notes: domain: SH2 domain
B5: SH2 domain of Hck (other, UniProt P08631 144-241, looked up)
chain: WFFKGISRKDAERQLLAPGNMLGSFMIRDSETTKGSYSLSVRDYDPRQGDTVKHYKIRTLDNGGFYISPRSTFSTLQELVDHYKKGNDGLCQKLSVPC
notes: domain: SH2 domain
B6: SH2 domain of TNS (other, UniProt Q9HBL0 1567-1676, looked up)
chain: WYKPEISREQAIALLKDQEPGAFIIRDSHSFRGAYGLAMKVSSPPPTIMQQNKKGDMTHELVRHFLIETGPRGVKLKGCPNEPNFGSLSALVYQHSIIPLALPCKLVIPN
notes: domain: SH2 domain
B7: SH2 domain of Fyn (other, UniProt P06241 149-246, looked up)
chain: WYFGKLGRKDAERQLLSFGNPRGTFLIRESETTKGAYSLSIRDWDDMKGDHVKHYKIRKLDNGGYYITTRAQFETLQQLVQHYSERAAGLCCRLVVPC
notes: domain: SH2 domain
B8: SH2 domain of Yes (other, UniProt P07947 158-255, looked up)
chain: WYFGKMGRKDAERLLLNPGNQRGIFLVRESETTKGAYSLSIRDWDEIRGDNVKHYKIRKLDNGGYYITTRAQFDTLQKLVKHYTEHADGLCHKLTTVC
notes: domain: SH2 domain
B9: SH2 domain of Csk (other, UniProt P41240 82-171, looked up)
chain: WFHGKITREQAERLLYPPETGLFLVRESTNYPGDYTLCVSCDGKVEHYRIMYHASKLSIDEEVYFENLMQLVEHYTSDADGLCTRLIKPK
notes: domain: SH2 domain
B10: SH2 domain of Stap2 (other, UniProt Q9UGK3 133-248, looked up)
chain: YMMSEVLAKEEARRALETPSCFLKVSRLEAQLLLERYPECGNLLLRPSGDGADGVSVTTRQMHNGTHVVRHYKVKREGPKYVIDVEQPFSCTSLDAVVNYFVSHTKKALVPFLLDE
notes: domain: SH2 domain
B11: SH2 domain of Fes (other, UniProt P07332 460-549, looked up)
chain: WYHGAIPRAEVAELLVHSGDFLVRESQGKQEYVLSVLWDGLPRHFIIQSLDNLYRLEGEGFPSIPLLIDHLLSTQQPLTKKSGVVLHRAV
notes: domain: SH2 domain
B12: SH2 domain of SHC2 (other, UniProt P98077 487-578, looked up)
chain: WYHGRMSRRAAERMLRADGDFLVRDSVTNPGQYVLTGMHAGQPKHLLLVDPEGVVRTKDVLFESISHLIDHHLQNGQPIVAAESELHLRGVV
notes: domain: SH2 domain
B13: SH2 domain of Lck (other, UniProt P06239 127-224, looked up)
chain: WFFKNLSRKDAERQLLAPGNTHGSFLIRESESTAGSFSLSVRDFDQNQGEVVKHYKIRNLDNGGFYISPRITFPGLHELVRHYTNASDGLCTRLSRPC
notes: domain: SH2 domain
B14: SH2 domain of Lyn (other, UniProt P07948 129-226, looked up)
chain: WFFKDITRKDAERQLLAPGNSAGAFLIRESETLKGSFSLSVRDFDPVHGDVIKHYKIRSLDNGGYYISPRITFPCISDMIKHYQKQADGLCRRLEKAC
notes: domain: SH2 domain
B15: SH2 domain of Grb14 (other, UniProt Q14449 439-535, looked up)
chain: WFHHKISRDEAQRLIIQQGLVDGVFLVRDSQSNPKTFVLSMSHGQKIKHFQIIPVEDDGEMFHTLDDGHTRFTDLIQLVEFYQLNKGVLPCKLKHYC
notes: domain: SH2 domain
B16: SH2 domain of Nck1 (other, UniProt P16333 282-376, looked up)
chain: WYYGKVTRHQAEMALNERGHEGDFLIRDSESSPNDFSVSLKAQGKNKHFKVQLKETVYCIGQRKFSTMEELVEHYKKAPIFTSEQGEKLYLVKHL
notes: domain: SH2 domain
B17: SH2 domain of Btk (other, UniProt Q06187 281-377, looked up)
chain: WYSKHMTRSQAEQLLKQEGKEGGFIVRDSSKAGKYTVSVFAKSTGDPQGVIRHYVVCSTPQSQYYLAEKHLFSTIPELINYHQHNSAGLISRLKYPV
notes: domain: SH2 domain
B18: SH2 domain of Fgr (other, UniProt P09769 144-241, looked up)
chain: WYFGKIGRKDAERQLLSPGNPQGAFLIRESETTKGAYSLSIRDWDQTRGDHVKHYKIRKLDMGGYYITTRVQFNSVQELVQHYMEVNDGLCNLLIAPC
notes: domain: SH2 domain
B19: SH2 domain of Grap (other, UniProt Q13588 60-154, looked up)
chain: WYSGRISRQLAEEILMKRNHLGAFLIRESESSPGEFSVSVNYGDQVQHFKVLREASGKYFLWEEKFNSLNELVDFYRTTTIAKKRQIFLRDEEPL
notes: domain: SH2 domain
B20: SH2 domain of Matk (other, UniProt P42679 122-211, looked up)
chain: WFHGKISGQEAVQQLQPPEDGLFLVRESARHPGDYVLCVSFGRDVIHYRVLHRDGHLTIDEAVFFCNLMDMVEHYSKDKGAICTKLVRPK
notes: domain: SH2 domain
B21: SH2 domain of Abl1 (other, UniProt P00519 127-217, looked up)
chain: WYHGPVSRNAAEYLLSSGINGSFLVRESESSPGQRSISLRYEGRVYHYRINTASDGKLYVSSESRFNTLAELVHHHSTVADGLITTLHYPA
notes: domain: SH2 domain
B22: SH2 domain of RaLP (other, UniProt Q6S5L8 526-617, looked up)
chain: CYHGKLSRKAAESLLVKDGDFLVRESATSPGQYVLSGLQGGQAKHLLLVDPEGKVRTKDHVFDNVGHLIRYHMDNSLPIISSGSEVSLKQPV
notes: domain: SH2 domain
B23: SH2 domain of SHC3 (other, UniProt Q92529 499-590, looked up)
chain: WYQGEMSRKEAEGLLEKDGDFLVRKSTTNPGSFVLTGMHNGQAKHLLLVDPEGTIRTKDRVFDSISHLINHHLESSLPIVSAGSELCLQQPV
notes: domain: SH2 domain
B24: SH2 domain of Crkl (other, UniProt P46109 14-102, looked up)
chain: WYMGPVSRQEAQTRLQGQRHGMFLVRDSSTCPGDYVLSVSENSRVSHYIINSLPNRRFKIGDQEFDHLPALLEFYKIHYLDTTTLIEPA
notes: domain: SH2 domain; also called Crk1

These binders were tested against T1, thrombin-activated EphA2 (endogenous, from lysate of HUVECs stimulated with 1 U/ml thrombin for 5 mins) (human, UniProt P29317 24-976, tyrosine phosphorylated after thrombin stimulation (sites not given)) (assay: SH2 domain array with thrombin-stimulated HUVEC lysate, anti-EphA2 detection).
T1 construct: Endogenous EphA2 in a HUVEC lysate, detected on the array with a biotinylated anti-human EphA2 antibody; No signal peptide limits are stated
T1 sequence (P29317 24-976 limits assumed): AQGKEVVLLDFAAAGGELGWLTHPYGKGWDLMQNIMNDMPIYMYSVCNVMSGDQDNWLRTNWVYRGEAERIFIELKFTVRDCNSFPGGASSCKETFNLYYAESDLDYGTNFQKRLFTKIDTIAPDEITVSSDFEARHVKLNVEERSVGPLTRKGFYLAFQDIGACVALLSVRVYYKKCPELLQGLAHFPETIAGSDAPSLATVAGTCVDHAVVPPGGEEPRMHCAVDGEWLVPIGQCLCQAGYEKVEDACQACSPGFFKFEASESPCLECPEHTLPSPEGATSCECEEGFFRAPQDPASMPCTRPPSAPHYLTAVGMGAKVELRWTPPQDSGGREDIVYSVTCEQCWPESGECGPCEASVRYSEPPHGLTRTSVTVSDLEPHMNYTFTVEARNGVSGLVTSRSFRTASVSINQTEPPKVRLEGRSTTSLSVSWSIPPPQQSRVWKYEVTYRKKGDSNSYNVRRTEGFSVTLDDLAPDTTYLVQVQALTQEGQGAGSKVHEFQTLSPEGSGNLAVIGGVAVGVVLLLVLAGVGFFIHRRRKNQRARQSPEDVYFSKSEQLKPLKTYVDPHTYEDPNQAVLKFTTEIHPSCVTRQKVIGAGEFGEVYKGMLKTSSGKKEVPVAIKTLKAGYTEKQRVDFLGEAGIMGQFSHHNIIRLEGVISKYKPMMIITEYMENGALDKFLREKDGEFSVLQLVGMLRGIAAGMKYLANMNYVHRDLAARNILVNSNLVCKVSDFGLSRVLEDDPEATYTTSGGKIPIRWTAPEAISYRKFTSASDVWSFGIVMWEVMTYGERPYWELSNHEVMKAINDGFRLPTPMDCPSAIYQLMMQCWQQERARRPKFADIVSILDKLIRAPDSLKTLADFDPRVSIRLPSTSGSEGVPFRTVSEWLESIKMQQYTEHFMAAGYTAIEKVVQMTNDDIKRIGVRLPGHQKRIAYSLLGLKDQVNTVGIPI
Protocol: (§1) Methods: We used a phosphotyrosine profiling array to identify signaling pathways linked to EphA2 activation by thrombin. HUVECs were prepared and stimulated with 1 U/ml thrombin for 5 mins. TranSignal Phosphotyrosine Profiling Array (Panomics) was used according to the manufacturer's protocol, except that a biotinylated anti-human EphA2 (R & D) was used as the detection antibody.
(§2) Results: Confluent HUVECs were stimulated with thrombin for 5 mins to induce EphA2 phosphorylation. This stimulated lysate and an unstimulated lysate were used in the antibody array experiment. The concept of this array is similar to a far-western blot. On this array, the SH2 domains of 38 signaling molecules were spotted in duplicate. Upon incubation with a lysate, each of these SH2 domains will bind to its specific, tyrosine phosphorylated protein targets. When an anti-human EphA2 antibody was used for detection, any SH2 domains that are bound to EphA2 will appear as two dots in a specific location of the membrane. Therefore, pathways activated post EphA2 phosphorylation can be identified.
B1: no binding. B2: no binding. B3: no binding. B4: no binding. B5: no binding. B6: no binding. B7: no binding. B8: no binding. B9: no binding. B10: no binding. B11: no binding. B12: no binding. B13: no binding. B14: no binding. B15: no binding. B16: no binding. B17: no binding. B18: no binding. B19: no binding. B20: no binding. B21: no binding. B22: no binding. B23: no binding.

What follows are binders tested against T1, thrombin-activated EphA2 (endogenous, …) (assay: SH2 domain array with thrombin-stimulated HUVEC lysate, anti-human EphA2 detection).
Protocol: as §1, §2
B24: binds.
